This passage reports Kd results from PMC12655427.

Assay [1] addresses recombinant soluble human FcRn variant FcRn-F2A (FcRn heavy α-chain extracellular domain with β2-microglobulin) (human) (UniProt P55899). Description: BLI; Octet RED96e; FcRn loaded at 5 µg/mL on HIS1K (anti-penta-HIS) biosensors; antibody 900 as analyte at 89.9 nM; global 1:1 model; pH 7.4–7.5. (Biolayer interferometry detects binding as a change in optical thickness at a sensor tip.)

In assay [2] the target is recombinant soluble human FcRn variant FcRn-E2A (FcRn heavy α-chain extracellular domain with β2-microglobulin) (human) (UniProt P55899). The assay is described as above.
The target in assay [3] is recombinant soluble human FcRn variant FcRn-P2A (FcRn heavy α-chain extracellular domain with β2-microglobulin) (human) (UniProt P55899). The description is as above.
In assay [4] the target is recombinant soluble human FcRn variant FcRn-F2A (FcRn heavy α-chain extracellular domain with β2-microglobulin) (human) (UniProt P55899). Description: BLI; Octet RED96e; FcRn loaded at 5 µg/mL on HIS1K (anti-penta-HIS) biosensors; antibody 900 as analyte at 89.9 nM; global 1:1 model; pH 6.0–6.1.
The target of assay [5] is recombinant soluble human FcRn variant FcRn-E2A (FcRn heavy α-chain extracellular domain with β2-microglobulin) (human) (UniProt P55899). The description is as above.
Assay [6] has as its target recombinant soluble human FcRn variant FcRn-P2A (FcRn heavy α-chain extracellular domain with β2-microglobulin) (human) (UniProt P55899). The description is as above.

As usually defined, the Kd is the equilibrium constant for the complex coming apart. “antibody 900 (variable regions of the light and heavy chains of the murine antibody 9E2 fused to the Fc fragment of human IgG1 with M252Y, S254T, T256E, E333A, H433K/N434F) (Fc fusion)”: the Kd in assay [1] was found to be 14.3 nM; in assay [2], 15.8 nM; in assay [3], 17.3 nM; in assay [4], 4.13 nM; in assay [5], 3.46 nM; in assay [6] it was 3.15 nM.
